Tests used:
[1] = molecular target: T1, p51W401A/p66W401A trans-heterodimeric RT (Human immunodeficiency virus type 1 group M subtype B, UniProt P04585, W988A); test: Effects of NNRTIs on trans-RT subunit interaction: immunoblot of virion-associated p66 from transfected 293T cells; assay type: cell-based, HIV-1; details: p51 W401A/p66 W401A RT mutants, FIG. 22
T1 construct: expressed in transfected cells; host or cells: 293T
Method: The dimerization enhancing NNRTI EFV was added to the culture medium 12 h after DNA transfection at concentrations ranging from 0.01-1.0 μM. The transfection-derived virions were collected 48 hours later and analyzed by immunoblot using mAbs to (A) RNase H and (B) CA.
At 24 h post-transfection, the specified concentrations of drug were added. […] The clarified supernatants were processed for and analyzed by immunoblot as described below.
Transfection-derived virions were concentrated by ultracentrifugation through 20% sucrose cushion (125,000×g, 2 hr, 4° C.) using a SW41 rotor (Beckman Inc.). […] The blocked blots were exposed to an appropriate primary antibody for 1 h in blocking buffer with constant mixing. After extension washing, bound antibodies were detected by chemiluminescence using horseradish peroxidase-conjugated species-specific secondary antibodies (Southern Biotechnology Associates, Inc.).

[2] = test system: M7 virions complemented with wildtype trans-RT (Vpr-p51/p66); test: Inhibition of trans-RT using NRTI and NNRTI, TZM-b1 reporter cell infectivity assay; assay type: cell-based, HIV-1; details: for antiviral effect, inhibition of infectivity: TZM-b1 indicator cells, 3TC 0.04, 0.2 and 1.0 μM, nevirapine 1.0, 5.0 and 5.0 μM as printed
Method: Virions derived by cotransfection with M7, vpr-p51/p66 and vpr-IN were used to infect the TZM-b1 reporter cell line. The two RT drugs, 3TC and nevirapine, were analyzed at concentrations of 0.04-1.0 μM for 3TC and 1.0-25.0 μM for nevirapine as described in Example 1. The results are expressed as a percentage of untreated virus.
The trans-heterodimer assay is of clinical relevance for analyzing HIV-1 RT inhibitors, drug resistance and the effects of drug resistance mutations on viral fitness. To examine the response of the trans-heterodimeric RT to anti-RT drugs, transfection-derived M7 virions complemented with wildtype trans-RT (Vpr-p51/p66) were used to infect the TZM-b1 indicator cells in the absence or presence of either 3TC (0.04, 0.2 and 1.0 μM) or nevirapine ([…]).
Virions were derived by cotransfection of 293T cells with M7, vpr-p51/p66 and vpr-IN. The TZM-b1 cells were seeded overnight in 24-well plates at a concentration of 40,000 cells in 250 μl of medium per well. The culture medium was removed and replaced with 250 μl of DMEM containing 1% FBS and 2× drug concentrations (5-fold dilutions). 250 μl of virus suspension normalized for equal IU, as determined by TZM-b1 assay (diluted in DMEM containing 1% FBS and 80 μg/ml DEAE-dextran), was then added to the cells. The two RT drugs used in this analysis, 3TC and nevirapine, were at final concentrations ranging from 0.04-1.0 μM and 1.0-25.0 μM, respectively. The cells were fixed 48 h post-infection, stained with X-gal reagent, and the blue-stained cells were counted using a light microscope as described above. The 50% inhibition concentration (IC50) was measured with a 95% confidence interval.

[3] = test system: HIV-1 NL4-3 with L234A, W398A, W401A and YMAA mutations; test: Infectivity of HIV-1 NL4-3 proviral clones with RT mutations, with efavirenz (FIG. 23); details: NL4-3 proviral clones with RT mutation, transfected into 293T cells
Method: Additional analysis of the W401A and W410A mutations was conducted in the context of the complete HIV-1 NL4-3 proviral clone. […] The non-infectious RT-minus M7 clone was included as negative control (lane 2). […] Probing a replica blot with mAb to CA confirmed that approximately the same amount of each virus was analyzed (FIG. 13C).

[4] = molecular target: p66^L234A subunit of HIV-1 reverse transcriptase, expressed in trans (HIV-1 (pSG3)); test: cell-based or functional assay
[5] = molecular target: p66^W401A subunit of HIV-1 reverse transcriptase, expressed in trans (HIV-1 (pSG3)); test: cell-based or functional assay
[6] = molecular target: p66^W410A subunit of HIV-1 reverse transcriptase, expressed in trans (HIV-1 (pSG3)); test: cell-based or functional assay
[7] = molecular target: p66 subunit of HIV-1 reverse transcriptase, expressed in trans with Met-Gly on the N-terminus (HIV-1 (pSG3)); test: cell-based or functional assay
[8] = molecular target: p66^W410L subunit of HIV-1 reverse transcriptase, expressed in trans (HIV-1 (pSG3)); test: cell-based or functional assay

2′,5′-bis-O-(tert-butyldimethylsilyl)-beta-D-ribofuranosyl 3′-spiro-5″-(4″-amino-1″,2″-oxathiole 2″,2″-dioxide) [TSAO]
RT heterodimerization, destabilization [1]: can destabilize HIV-1 RT heterodimerization

Nc1ccn([C@@H]2CS[C@H](CO)O2)c(=O)n1 [3TC]
antiviral effect, inhibition of infectivity [2]: potent, dosage-dependent antiviral effect

O=C1Nc2ccc(Cl)cc2[C@@](C#CC2CC2)(C(F)(F)F)O1 [efavirenz]
rescue of infectivity of mutant virus [3]: not rescued

Cc1ccnc2c1NC(=O)c1cccnc1N2C1CC1 [nevirapine]
IC50 ([2]; Human immunodeficiency virus 1, TZM-b1, 48 h, read-out: IC50, inhibition of infectivity): 0.011 µM
antiviral effect, inhibition of infectivity [2]: potent, dosage-dependent antiviral effect

Vpr-p51 fusion protein, wildtype, modified construct with 135 bps of PR sequence (45 amino acids) between Vpr and RT
virus infectivity, TZM-b1 reporter cells, percentage of wildtype trans heterodimer [4]: < 5%
virus infectivity, JLTRG-R5 reporter T cell line (EGFP), percentage of wildtype trans-RT [5]: 50%
virus infectivity, TZM-b1 reporter cells, percentage of wildtype trans heterodimer [5]: 40%
virus infectivity, TZM-b1 reporter cells, percentage of wildtype trans-RT [5]: 40%

Vpr-p51^N363A fusion protein
virus infectivity, TZM-b1 reporter cells, percentage of wildtype trans heterodimer [6]: 35%

Vpr-p51^N363A;Y405A fusion protein
virus infectivity, TZM-b1 reporter cells, percentage of wildtype trans heterodimer [7]: 35%

Vpr-p51^W398A fusion protein
virus infectivity, TZM-b1 reporter cells, percentage of wildtype trans-RT heterodimer [7]: < 50%

Vpr-p51^W401A fusion protein
virus infectivity, TZM-b1 reporter cells, percentage of wildtype trans heterodimer [6]: 40%
virus infectivity, TZM-b1 reporter cells, percentage of wildtype trans heterodimer [8]: 40%

Vpr-p51^W401L fusion protein
virus infectivity, TZM-b1 reporter cells, percentage of wildtype trans heterodimer [6]: 40%

Vpr-p51^W402A fusion protein
virus infectivity, TZM-b1 reporter cells, percentage of wildtype trans-RT heterodimer [7]: < 50%

Vpr-p51^W406A fusion protein
virus infectivity, TZM-b1 reporter cells, percentage of wildtype trans-RT heterodimer [7]: < 50%

Vpr-p51^W414A fusion protein
virus infectivity, TZM-b1 reporter cells, percentage of wildtype trans-RT heterodimer [7]: < 50%

Vpr-p51^Y405A fusion protein
virus infectivity, TZM-b1 reporter cells, percentage of wildtype trans-RT heterodimer [7]: 50%
virus infectivity, TZM-b1 reporter cells, percentage of wildtype trans heterodimer [6]: 25%

From patent US20110004951A1, “METHODS AND COMPOSITIONS FOR IDENTIFYING COMPOUNDS THAT INHIBIT HIV-1 SUBUNIT-SPECIFIC REVERSE TRANSCRIPTASE” (UAB Research Foundation, The, priority 2004, published 2011)
